Test results published in PMC7568338 (Proceedings of the National Academy of Sciences of the …, 2020).
Where a chain is given by its changes, count along the chain named.

B1: ^D645CClpA (enzyme, E. coli, UniProt P0ABH9 1-749, looked up)
chain: MLNQELELSLNMAFARAREHRHEFMTVEHLLLALLSNPSAREALEASSVDLVALRQELEAFIEQTTPVLPASEEERDTQPTLSFQRVLQRAVFHVQSSGRNEVTGANVLVAIFSEQESQAAYLLRKHEVSRLDVVNFISHGTRKDEPTQSSDPGSQPNSEEQAGGEERMENFTTNLNQLARVGGIDPLIGREKELERAIQVLSRRRKNNPLLVGESGVGKTAIAEGLAWRIVQGDVPEVMADSTIYSLDIGSLLAGTKYRGDFEKRFKALLKQLEQDTNSILFIDEIHTIIGAGAASGGQVDAANLIKPLLSSGKIRVIGSTTYQEFSNIFEKDRALARRFQKIDITEPSIEETVQIINGLKPKYEAHHDVRYTAKAVRAAVELAVKYINDRHLPDKAIDVIDEAGARARLMPVSKRKKTVNVADIESVVARIARIPEKSVSQSDRDTLKNLGDRLKMLVFGQDKAIEALTEAIKMARAGLGHEHKPVGSFLFAGPTGVGKTEVTVQLSKALGIELLRFDMSEYMERHTVSRLIGAPPGYVGFDQGGLLTDAVIKHPHAVLLLDEIEKAHPDVFNILLQVMDNGTLTDNNGRKADFRNVVLVMTTNAGVRETERKSIGLIHQDNSTDAMEEIKKIFTPEFRNRLCNIIWFDHLSTDVIHQVVDKFIVELQVQLDQKGVSLEVSQEARNWLAEKGYDRAMGARPMARVIQDNLKKPLANELLFGSLVDGGQVTVALDKEKNELTYGFQSA
B2: ^Q709CClpA (enzyme, E. coli, UniProt P0ABH9 1-749, looked up)
chain: B1 chain with C645D, Q709C

Biological target: the molecule itself
Test: SEC

Protein | binding result
B1 | binds
B2 | binds
